This is an account of results in paper PMC11021519, “Niche Tet maintains germline stem cells independently of dioxygenase activity” (The EMBO Journal, 2024).

This assay concerns the target T1, Myc-Tet-C (Drosophila, UniProt M9NEY8-5 1846-2921).
T1 construct: Drosophila Tet, C-terminal domain, aa1846-2921 of Tet-PF (FBpp0306013); also called C-terminal domain of Tet; source: bacteria (E. coli), pET32a(+), purified (Ni-NTA); not shown: Myc, N-terminal, kept
Briefly: pull-down; in vitro binding of two purified proteins (10 μg of each), overnight at 4 °C in Buffer A (50 mM Tris-HCl pH 7.5, 50 mM NaCl, 5% glycerol, 1 mM EDTA, 0.1% Igepal CA-630) with Dynabeads Protein G and 5 μg antibody (anti-HA, anti-Myc or anti-Strep); six washes; immunoblot. The settings on record: both partners purified. (In general: In western blotting, separated proteins are transferred to a membrane and probed.)

T1 sequence (M9NEY8 1785-2860): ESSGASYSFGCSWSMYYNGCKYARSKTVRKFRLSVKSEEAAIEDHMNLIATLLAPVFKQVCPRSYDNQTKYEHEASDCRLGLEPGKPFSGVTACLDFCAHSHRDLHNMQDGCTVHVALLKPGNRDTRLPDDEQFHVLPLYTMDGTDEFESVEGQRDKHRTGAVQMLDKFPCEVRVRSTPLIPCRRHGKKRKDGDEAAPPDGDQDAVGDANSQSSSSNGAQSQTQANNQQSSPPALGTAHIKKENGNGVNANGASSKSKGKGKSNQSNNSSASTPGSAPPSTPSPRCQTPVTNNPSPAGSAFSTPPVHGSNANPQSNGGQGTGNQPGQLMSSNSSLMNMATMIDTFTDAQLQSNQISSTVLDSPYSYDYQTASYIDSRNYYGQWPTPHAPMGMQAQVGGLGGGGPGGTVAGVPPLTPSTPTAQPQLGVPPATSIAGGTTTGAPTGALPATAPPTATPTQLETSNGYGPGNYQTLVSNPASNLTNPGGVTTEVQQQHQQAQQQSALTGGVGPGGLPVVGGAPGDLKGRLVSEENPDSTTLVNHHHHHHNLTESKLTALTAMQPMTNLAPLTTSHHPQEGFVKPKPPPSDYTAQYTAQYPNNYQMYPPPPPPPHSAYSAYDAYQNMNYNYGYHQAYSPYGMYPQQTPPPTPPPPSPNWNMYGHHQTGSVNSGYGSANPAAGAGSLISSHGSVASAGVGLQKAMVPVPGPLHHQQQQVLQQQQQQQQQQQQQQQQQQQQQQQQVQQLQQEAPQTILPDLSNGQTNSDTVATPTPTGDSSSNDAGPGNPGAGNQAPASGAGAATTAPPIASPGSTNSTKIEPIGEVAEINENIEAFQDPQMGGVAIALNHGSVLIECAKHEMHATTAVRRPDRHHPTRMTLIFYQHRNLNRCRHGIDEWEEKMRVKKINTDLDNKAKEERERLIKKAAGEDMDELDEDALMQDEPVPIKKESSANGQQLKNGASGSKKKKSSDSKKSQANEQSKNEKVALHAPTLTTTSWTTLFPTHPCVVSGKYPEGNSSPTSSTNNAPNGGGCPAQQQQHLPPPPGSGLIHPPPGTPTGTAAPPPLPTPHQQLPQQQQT

B1: Strep-Bap55 (natural protein, Drosophila, UniProt Q7K012 1-425, looked up)
chain: MSGGTMLYGGDEIGALVFDPGHHSLRVGYAQEDSPKAEIPSVVGIGAAPETNLDPETKTDNNATPNNADQRKFYVDTNYVTVPRSNMEVQTYMKDGMIDNWDLFEKVIDYAYANVIQSEPEYHPVLFSEASWNVRNNREKLTELMFEKYNVPAFFLVKNAVLAAFSSGRATALVVDSGATHTSAVPVHEGYVLSQAVVKSPLGGDFLSRQCRQHLEKHGIDLSPVYKIASKDVVKERDNGRFTLRKLPENLTQSWQNYMLQLMMQDFQMNVLQVLENPFDERVAAQIPTVHYEFPNGYHQDFGSERFKIAESLFDNAMLGAGQLASTSVGMCDADVRLSLFGSVVVTGGNTLLQGFPERLNRDLQLRAPSNTRLKMISANGSVERRFGAWIGGSILASIGTFQQMWISSQEYEEAGKSQVERKCP
notes: Drosophila Bap55, full-length Bap55-PA; pFastBac-HTB vectors usually also add an N-terminal His6 tag; source: insect cells (baculovirus), purified (Strep-Tactin XT, Superdex 200)
Regarding B1, the binding result is “binds”.

B2: HA-Stat92E (natural protein, Drosophila, UniProt Q24151 1-761, looked up)
chain: MSLWKRISSHVDCEQRMAAYYEEKGMLELRLCLAPWIEDRIMSEQITPNTTDQLERVALKFNEDLQQKLLSTRTASDQALKFRVVELCALIQRISAVELYTHLRSGLQKELQLVTEKSVAATAGQSMPLNPYNMNNTPMVTGYMVDPSDLLAVSNSCNPPVVQGIGPIHNVQNTGIASPALGMVTPKVELYEVQHQIMQSLNEFGNCANALKLLAQNYSYMLNSTSSPNAEAAYRSLIDEKAAIVLTMRRSFMYYESLHEMVIHELKNWRHQQAQAGNGAPFNEGSLDDIQRCFEMLESFIAHMLAAVKELMRVRLVTEEPELTHLLEQVQNAQKNLVCSAFIVDKQPPQVMKTNTRFAASVRWLIGSQLGIHNNPPTVECIIMSEIQSQRFVTRNTQMDNSSLSGQSSGEIQNASSTMEYQQNNHVFSASFRNMQLKKIKRAEKKGTESVMDEKFALFFYTTTTVNDFQIRVWTLSLPVVVIVHGNQEPQSWATITWDNAFAEIVRDPFMITDRVTWAQLSVALNIKFGSCTGRSLTIDNLDFLYEKLQREERSEYITWNQFCKEPMPDRSFTFWEWFFAIMKLTKDHMLGMWKAGCIMGFINKTKAQTDLLRSVYGIGTFLLRFSDSELGGVTIAYVNENGLVTMLAPWTARDFQVLNLADRIRDLDVLCWLHPSDRNASPVKRDVAFGEFYSKRQEPEPLVLDPVTGYVKSTLHVHVCRNGENGSTSGTPHHAQESMQLGNGDFGMADFDTITNFENF
notes: Drosophila Stat92E, full-length isoform Stat92E-PF; source: bacteria (E. coli), pET32a(+), purified (Ni-NTA); not shown: HA, N-terminal, kept
In the case of B2, the binding result is “binds”.
